For assay [1], the target named is T1, soluble human CD3 epsilon chain (human, UniProt P07766 23-126).
T1 construct: also called CD3ε
Kind of assay: SPR.

Assay [2] deals with T2, human GPC3 (human, UniProt P51654 25-563).
T2 construct: range 25-563; soluble analyte; also called soluble human GPC3; glypican 3
As to the kind of experiment: SPR.

Assay [3] has as its target T2, human GPC3. As to the kind of experiment: SPR, antibody captured by Protein A/G. The procedure: The activity to bind human GPC3 when using GL4 (SEQ ID NO: 41) and L0000 (SEQ ID NO: 53) as the L-chain variable regions was evaluated. This was performed using the molecular form of a single-arm antibody having a single Fab at the Fc region of a human IgG1 heterodimerized by the knobs-into-hole technique. H0000 (SEQ ID NO: 40) was used for the anti-GPC3 antibody H-chain variable region.
The affinity and binding rate constants of an anti-GPC3 antibody for an antigen were measured by the multi-cycle kinetics method of a surface plasmon resonance assay using Biacore™-T200 (GE Healthcare Japan). HBS-EP+(GE Healthcare Japan) was used for the running buffer, and an amine coupling kit (GE Healthcare Japan) was used to covalently bind Protein A/G to the CM5 chip (carboxymethyl dextran-coated chip). […] Measurements were carried out by first allowing Protein A/G to capture the antibody solution, and then injecting the human GPC3 solution at a flow rate of […] for three minutes to allow reaction to take place. Then, the solution was switched to HBS-EP+ and the dissociation phase was measured for 15 minutes. After completion of the dissociation phase measurement, the sensor chip was regenerated by washing with 10 mM Gly-HCl at pH 1.5. Measurement at the concentration of 0 was similarly carried out by allowing Protein A/G to capture the antibody solution, performing a three-minute HBS-EP+ injection to allow reaction to take place, and then switching to HBS-EP+ to measure the dissociation phase for 15 minutes. After completion of the dissociation phase measurement, the sensor chip was regenerated by washing with 10 mM Gly-HCl at pH 1.5. A data analysis software exclusively for Biacore, Biacore T200 Evaluation Software Version 1.0, was used to perform kinetic analyses to calculate the binding rate constant (ka), dissociation rate constant (kd), and the rate constant ratio from the obtained sensorgrams.

The target of assay [4] is T1, soluble human CD3 epsilon chain. Kind of assay: SPR, human CD3 on the chip. The procedure: The activity to bind human CD3 when using hCE115HA (SEQ ID NO: 52) as the H chain variable region and L0000 (SEQ ID NO: 53) as the L-chain variable region was evaluated. This was performed using the molecular form of a single-arm antibody having a single Fab at the Fc region of a human IgG1 heterodimerized by the knobs-into-hole technique.
The affinity and binding rate constants of an anti-CD3 antibody for an antigen were measured by the single-cycle kinetics method of a surface plasmon resonance assay using Biacore™-T200 (GE Healthcare Japan). HBS-EP+(GE Healthcare Japan) was used for the running buffer, and an amine coupling kit (GE Healthcare Japan) was used to covalently bind human CD3 to the CM4 chip (carboxymethyl dextran-coated chip). The anti-CD3 antibody used as the analyte was prepared at 5 and […] using HBS-EP+. Measurements were carried out by first injecting each of the 5- and 20-g/mL anti-CD3 antibody solutions for three minutes continuously at a flow rate of 20 L/min to allow reaction to take place. Then, the solution was switched to HBS-EP+ and the dissociation phase was measured for 3 minutes. After completion of the dissociation phase measurement, the sensor chip was regenerated by washing with 10 mM Gly-HCl at pH 1.5. Measurement at the concentration of 0 was carried out by performing each of the three-minute HBS-EP+ injections twice successively to allow reaction to take place, and then switching to HBS-EP+ to measure the dissociation phase for 3 minutes. After completion of the dissociation phase measurement, the sensor chip was regenerated by washing with 10 mM Gly-HCl at pH 1.5. A data analysis software exclusively for Biacore, Biacore T200 Evaluation Software Version 1.0, was used to perform kinetic analyses to calculate the binding rate constant (ka), dissociation rate constant (kd), and the rate constant ratio from the obtained sensorgrams.
A general note: In SPR one partner is held on a chip, and binding of the other changes the refractive index at the surface.

Assay [5] deals with T2, human GPC3. Kind of assay: SPR, single-arm antibody.

Residue numbers refer to the chain shown, from its start.

T1 sequence (P07766 23-126 limits assumed): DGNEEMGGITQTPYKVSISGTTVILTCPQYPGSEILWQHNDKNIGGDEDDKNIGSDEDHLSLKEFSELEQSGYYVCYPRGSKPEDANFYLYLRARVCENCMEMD
T2 sequence (P51654 25-563 limits assumed): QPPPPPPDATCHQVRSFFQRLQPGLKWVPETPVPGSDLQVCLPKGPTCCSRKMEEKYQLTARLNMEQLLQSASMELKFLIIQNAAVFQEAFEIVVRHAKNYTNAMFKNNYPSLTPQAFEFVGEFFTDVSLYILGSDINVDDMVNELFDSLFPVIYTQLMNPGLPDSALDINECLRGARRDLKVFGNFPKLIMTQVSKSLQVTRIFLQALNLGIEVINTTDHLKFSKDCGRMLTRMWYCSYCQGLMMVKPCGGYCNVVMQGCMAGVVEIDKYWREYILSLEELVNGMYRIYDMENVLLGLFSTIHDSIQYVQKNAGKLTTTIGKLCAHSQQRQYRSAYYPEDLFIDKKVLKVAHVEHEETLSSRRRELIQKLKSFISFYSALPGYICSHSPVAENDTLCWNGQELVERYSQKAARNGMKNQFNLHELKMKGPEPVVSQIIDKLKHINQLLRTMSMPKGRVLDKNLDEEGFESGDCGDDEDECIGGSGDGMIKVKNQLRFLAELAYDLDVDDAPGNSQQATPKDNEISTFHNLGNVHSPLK

B1: TR01H002-E22Hh/GLS3108-k0/GL4-E22Hk/H0610-E22L (bispecific antibody, human IgG1, kappa, L234A L235A, N297A)
heavy: QVQLVESGGGVVQPGRSLRLSCAASGFTFSNAWMHWVRQAPGKGLEWVAQIKAKSNNYKKYYAESVKGRFTISRDDSKNSLYLQMNSLKTEDTAVYYCRYVHYYYYYGVQAWGQGTTVTVSSASTKGPSVFPLAPSSKSTSGGTAALGCLVKDYFPEPVTVSWNSGALTSGVHTFPAVLQSSGLYSLSSVVTVPSSSLGTQTYICNVNHKPSNTKVDKKVEPKSCDKTHTCPPCPAPEAAGGPSVFLFPPKPKDTLMISRTPEVTCVVVDVSHEDPEVKFNWYVDGVEVHNAKTKPREEQYASTYRVVSVLTVLHQDWLNGKEYKCKVSNKALPAPIEKTISKAKGQPREPQVYTLPPSRCELTKNQVSLSCAVKGFYPSDIAVEWESNGQPENNYKTTPPVLDSDGSFFLVSKLTVDKSRWQQGNVFSCSVMHEALHNHYTQKSLSLSPDYKDDDDK
light: DIVMTQSPLSLPVTPGEPASISCRSSQSLVHSNRNTYLSWYQQKPGQAPRLLIYKVSNRFSGVPDRFSGSGSGTDFTLKISRVEAEDVGVYYCGQGTQVPYTFGQGTKLEIKRTVAAPSVFIFPPSDEQLKSGTASVVCLLNNFYPREAKVQWKVDNALQSGNSQESVTEQDSKDSTYSLSSTLTLSKADYEKHKVYACEVTHQGLSSPVTKSFNRGEC
chain 1: DIVMTQSPLSLPVTPGEPASISCRSSQSLVHSNRNTYLHWYQQKPGQAPRLLIYKVSNRFSGVPDRFSGSGSGTDFTLKISRVEAEDVGVYYCSQNTHVPPTFGQGTKLEIKSSASTKGPSVFPLAPSSKSTSGGTAALGCLVKDYFPEPVTVSWNSGALTSGVHTFPAVLQSSGLYSLSSVVTVPSSSLGTQTYICNVNHKPSNTKVDKKVEPKSCDKTHTCPPCPAPEAAGGPSVFLFPPKPKDTLMISRTPEVTCVVVDVSHEDPEVKFNWYVDGVEVHNAKTKPREEQYASTYRVVSVLTVLHQDWLNGKEYKCKVSNKALPAPIEKTISKAKGQPREPQVCTLPPSRDELTKNQVSLWCLVKGFYPSDIAVEWESNGQPENNYKTTPPVLDSDGSFFLYSKLTVDKSRWQQGNVFSCSVMHEALHNHYTQKSLSLSPHHHHHHHH
chain 2: QVQLVQSGAEVKKPGASVKVSCKASGYTFTDYEMHWIRQPPGQGLEWIGAIDGKTPDTAYSQKFKGRVTLTADKSTSTAYMELSSLTSEDTAVYYCTRFYSYTYWGQGTLVTVSSASVAAPSVFIFPPSDEQLKSGTASVVCLLNNFYPREAKVQWKVDNALQSGNSQESVTEQDSKDSTYSLSSTLTLSKADYEKHKVYACEVTHQGLSSPVTKSFNRGEC
notes: ERY22 format
For B1, the equilibrium dissociation constant (Kd) in assay [1] was 2.04 nM; with human GPC3 [2] it was 0.475 nM.

B2: H0000/GL4 single-arm antibody (antibody, human IgG1, V domains shown)
VH: QVQLVQSGAEVKKPGASVKVSCKASGYTFTDYEMHWIRQPPGQGLEWIGAIDPKTGDTAYSQKFKGRVTLTADKSTSTAYMELSSLTSEDTAVYYCTRFYSYTYWGQGTLVTVSS
VL: DIVMTQSPLSLPVTPGEPASISCRSSQSLVHSNRNTYLHWYQQKPGQAPRLLIYKVSNRFSGVPDRFSGSGSGTDFTLKISRVEAEDVGVYYCSQNTHVPPTFGQGTKLEIK
notes: single Fab on human IgG1 Fc heterodimerized by knobs-into-hole
In the assay with human GPC3 [3], B2 gave a Kd of 4.2 nM, a koff of 0.0018 s⁻¹ and a kon of 430000 M⁻¹ s⁻¹.

B3: hCE115HA/L0000 single-arm antibody (antibody, human IgG1, V domains shown)
VH: QVQLVESGGGVVQPGRSLRLSCAASGFTFSNAWMHWVRQAPGKGLEWVAQIKAKSNNYATYYAESVKGRFTISRDDSKNSLYLQMNSLKTEDTAVYYCRYVHYGAYYGVDAWGQGTTVTVSS
VL: B2 VL with S94G, N96G, H98Q, P101Y
notes: as for B2
For the molecule B3, in assay [4], the affinity, expressed as Kd, was 120 nM; the koff amounted to 0.023 s⁻¹; the kon amounted to 190000 M⁻¹ s⁻¹.

B4: GCH094-G1dh/none-Hi-Kn010G3/L0011-k0 (antibody, V domains shown)
VH: B2 VH with K19T, I37V, P40A, Q43E, I48M, P53G, K54E, G56P, Q62E
VL: DIVMTQSPLSLPVTPGEPASISCRSSQPLVHSNRNTYLHWYQQKPGQAPRLLIYKVSNRFSGVPDRFSGSGSGTDFTLKISRVEAEDVGVYYCGQGTQVPYTFGQGTKLEIKR
notes: one-arm
Consider B4, for which the Kd with human GPC3 [5] was found to be 4.54 nM; with human GPC3 [2], 3.88 nM.

B5: GCH065-G1dh/none-Hi-Kn010G3/L0011-k0 (antibody, V domains shown)
VH: B2 VH with K19T, Q43E, P53G, K54P, G56P, Q62E
VL: B4 VL
notes: one-arm
Turning to B5, the Kd with human GPC3 [5] and in the assay with human GPC3 [2] was 0.884 nM each time.

B6: H0000/L0000 single-arm antibody (antibody, human IgG1, V domains shown)
VH: B2 VH
VL: B2 VL with S94G, N96G, H98Q, P101Y
notes: as for B2
On to B6, for which, in the assay with human GPC3 [3], binding was characterised by a dissociation constant (Kd) of 36 nM, the koff turned out to be 0.011 s⁻¹ and the kon came out at 300000 M⁻¹ s⁻¹.

B7: H0610-G1dh/none-Hi-Kn010G3/L0000-k0 (antibody, V domains shown)
VH: B2 VH with P53G, G56P
VL: B4 VL with P28S
notes: one-arm
Regarding B7, the Kd is 4.16 nM in the assay with human GPC3 [5] and 3.97 nM in the assay with human GPC3 [2].

B8: GCH054-G1dh/none-Hi-Kn010G3/L0011-k0 (antibody, V domains shown)
VH: B2 VH with K19T, Q43E, P53G, K54E, G56P, Q62E
VL: B4 VL
notes: one-arm
Regarding B8, the Kd in the assay with human GPC3 [5] and with human GPC3 [2] was 5.25 nM in each case.

In general, Kd refers to the equilibrium constant for the complex coming apart. Read a low Kd as higher affinity. One may read the koff as the first-order rate constant of dissociation. Lower therefore signals a long-lived complex. The kon is the second-order rate constant of association. The low end stands for slower complex formation, the high end for faster complex formation.

For the origin of these results see patent US20250066503A1, “CELL INJURY INDUCING THERAPEUTIC DRUG FOR USE IN CANCER THERAPY” (CHUGAI SEIYAKU KABUSHIKI KAISHA, priority 2016, published 2025).
